The results in this text go back to the supplement of paper PMC11316812.

± gives the standard deviation of the averaged measurements.

One series concerns MCF7. The experiment in a line: percentage of EdU-negative (G0-arrested) nuclei per well, 72 h; higher = more G0 arrest. The following applies: reference: sequence is the full UniProt precursor, the tested protein was the secreted form or ectodomain.
The subject of another series is hTERT-HMEC. The series is described as above. The following applies: reference: sequence is the full UniProt precursor, the tested protein was the secreted form or ectodomain.
Setting [1] is: protein concentration 0.03125 µM.
The mark [2] stands for this setting: protein concentration 0.3125 µM.
Where [3] appears, read: protein concentration 0.02535 µM.
Setting [4] is: protein concentration 0.2535 µM.
[5] abbreviates: protein concentration 0.0260325 µM.
Where [6] appears, read: protein concentration 0.260325 µM.
Setting [7] is: protein concentration 0.0225 µM.
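Further: secreted proteins added to cultured cells, EdU pulse at the end, nuclei found by Hoechst imaging, EdU status from nuclear versus surrounding ring intensity ratio, PBS as neutral control.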

In the case of “MGFQKFSPFLALSILVLLQAGSLHAAPFRSALESSPADPATLSEDEARLLLAALVQDYVQMKASELEQEQEREGSSLDSPRSKRCGNLSTCMLGTYTQDFNKFHTFPQTAIGVGAPGKKRDMSSDLERDHRPHVSMPQNAN”, the “percentage of EdU-negative” value was found to be 26.7 ± 2.5% in the series on MCF7 (setting [1]), 25.55 ± 0.19% with MCF7 (setting [2]), 5.19 ± 0.42% in the series with hTERT-HMEC (setting [1]) and 5.1 ± 0.19% in the series on hTERT-HMEC (setting [2]).
Consider “MGFWILAILTILMYSTAAKFSKQSWGLENEALIVRCPRQGKPSYTVDWYYSQTNKSIPTQERNRVFASGQLLKFLPAAVADSGIYTCIVRSPTFNRTGYANVTIYKKQSDCNVPDYLMYSTVSGSEKNSKIYCPTIDLYNWTAPLEWFKNCQALQGSRYRAHKSFLVIDNVMTEDAGDYTCKFIHNENGANYSVTATRSFTVKDEQGFSLFPVIGAPAQNEIKEVEIGKNANLTCSACFGKGTQFLAAVLWQLNGTKITDFGEPRIQQEEGQNQSFSNGLACLDMVLRIADVKEEDLLLQYDCLALNLHGLRRHTVRLSRKNPIDHHSIYCIIAVCSVFLMLINVLVIILKMFWIEATLLWRDIAKPYKTRNDGKLYDAYVVYPRNYKSSTDGASRVEHFVHQILPDVLENKCGYTLCIYGRDMLPGEDVVTAVETNIRKSRRHIFILTPQITHNKEFAYEQEVALHCALIQNDAKVILIEMEALSELDMLQAEALQDSLQHLMKVQGTIKWREDHIANKRSLNSKFWKHVRYQMPVPSKIPRKASSLTPLAAQKQ”, for which the “percentage of EdU-negative” value in the series with MCF7 (setting [3]) turned out to be 23.7 ± 0.79%; in the series on MCF7 (setting [4]) it was 25.9 ± 0.45%; in the series on hTERT-HMEC (setting [3]), 5.463 ± 0.046%; with hTERT-HMEC (setting [4]), 5.2 ± 0.66%.
For the sequence “MGGPRALLAALWALEAAGTAALRIGAFNIQSFGDSKVSDPACGSIIAKILAGYDLALVQEVRDPDLSAVSALMEQINSVSEHEYSFVSSQPLGRDQYKEMYLFVYRKDAVSVVDTYLYPDPEDVFSREPFVVKFSAPGTGERAPPLPSRRALTPPPLPAAAQNLVLIPLHAAPHQAVAEIDALYDVYLDVIDKWGTDDMLFLGDFNADCSYVRAQDWAAIRLRSSEVFKWLIPDSADTTVGNSDCAYDRIVACGARLRRSLKPQSATVHDFQEEFGLDQTQALAISDHFPVEVTLKFHR”, the “percentage of EdU-negative” value with MCF7 (setting [5]) worked out at 25.9 ± 0.85%; in the series on MCF7 (setting [6]), 23.9 ± 1.7%; in the series with hTERT-HMEC (setting [5]), 4.97 ± 0.32%; with hTERT-HMEC (setting [6]), 5.04 ± 0.098%.
As to “MGGRVFLAFCVWLTLPGAETQDSRGCARWCPQNSSCVNATACRCNPGFSSFSEIITTPTETCDDINECATPSKVSCGKFSDCWNTEGSYDCVCSPGYEPVSGAKTFKNESENTCQDVDECQQNPRLCKSYGTCVNTLGSYTCQCLPGFKFIPEDPKVCTDVNECTSGQNPCHSSTHCLNNVGSYQCRCRPGWQPIPGSPNGPNNTVCEDVDECSSGQHQCDSSTVCFNTVGSYSCRCRPGWKPRHGIPNNQKDTVCEDMTFSTWTPPPGVHSQTLSRFFDKVQDLGRDSKTSSAEVTIQNVIKLVDELMEAPGDVEALAPPVRHLIATQLLSNLEDIMRILAKSLPKGPFTYISPSNTELTLMIQERGDKNVTMGQSSARMKLNWAVAAGAEDPGPAVAGILSIQNMTTLLANASLNLHSKKQAELEEIYESSIRGVQLRRLSAVNSIFLSHNNTKELNSPILFAFSHLESSDGEAGRDPPAKDVMPGPRQELLCAFWKSDSDRGGHWATEGCQVLGSKNGSTTCQCSHLSSFAILMAHYDVEDWKLTLITRVGLALSLFCLLLCILTFLLVRPIQGSRTTIHLHLCICLFVGSTIFLAGIENEGGQVGLRCRLVAGLLHYCFLAAFCWMSLEGLELYFLVVRVFQGQGLSTRWLCLIGYGVPLLIVGVSAAIYSKGYGRPRYCWLDFEQGFLWSFLGPVTFIILCNAVIFVTTVWKLTQKFSEINPDMKKLKKARALTITAIAQLFLLGCTWVFGLFIFDDRSLVLTYVFTILNCLQGAFLYLLHCLLNKKVREEYRKWACLVAGGSKYSEFTSTTSGTGHNQTRALRASESGI”, the “percentage of EdU-negative” value with MCF7 (setting [7]) stood at 24.7 ± 1.8%; in the series with MCF7 (protein concentration 0.225 µM), 26.3 ± 3.2%; with hTERT-HMEC (setting [7]), 5.19 ± 0.7%; in the series on hTERT-HMEC (protein concentration 0.225 µM), 5.66 ± 0.12%.
Taken in the same sequence, the figures for “MGHLSAPLHRVRVPWQGLLLTASLLTFWNPPTTAQLTTESMPFNVAEGKEVLLLVHNLPQQLFGYSWYKGERVDGNRQIVGYAIGTQQATPGPANSGRETIYPNASLLIQNVTQNDTGFYTLQVIKSDLVNEEATGQFHVYPELPKPSISSNNSNPVEDKDAVAFTCEPETQDTTYLWWINNQSLPVSPRLQLSNGNRTLTLLSVTRNDTGPYECEIQNPVSANRSDPVTLNVTYGPDTPTISPSDTYYRPGANLSLSCYAASNPPAQYSWLINGTFQQSTQELFIPNITVNNSGSYTCHANNSVTGCNRTTVKTIIVTELSPVVAKPQIKASKTTVTGDKDSVNLTCSTNDTGISIRWFFKNQSLPSSERMKLSQGNTTLSINPVKREDAGTYWCEVFNPISKNQSDPIMLNVNYNALPQENGLSPGAIAGIVIGVVALVALIAVALACFLHFGKTGRASDQRDLTEHKPSVSNHTQDHSNDPPNKMNEVTYSTLNFEAQQPTQPTSASPSLTATEIIYSEVKKQ” were 24.7 ± 1.3%, 26.6 ± 0.95%, 5.04 ± 1.4% and 7.07 ± 0.44%.
Take “MGHPPLLPLLLLLHTCVPASWGLRCMQCKTNGDCRVEECALGQDLCRTTIVRLWEEGEELELVEKSCTHSEKTNRTLSYRTGLKITSLTEVVCGLDLCNQGNSGRAVTYSRSRYLECISCGSSDMSCERGRHQSLQCRSPEEQCLDVVTHWIQEGEEGRPKDDRHLRGCGYLPGCPGSNGFHNNDTFHFLKCCNTTKCNEGPILELENLPQNGRQCYSCKGNSTHGCSSEETFLIDCRGPMNQCLVATGTHEPKNQSYMVRGCATASMCQHAHLGDAFSMNHIDVSCCTKSGCNHPDLDVQYRSGAAPQPGPAHLSLTITLLMTARLWGGTLLWT”: the “percentage of EdU-negative” value in the series with MCF7 (setting [1]) amounted to 23.5 ± 1.9%; in the series on MCF7 (setting [2]), 21 ± 1.2%; with hTERT-HMEC (setting [1]), 5.81 ± 0.25%; in the series on hTERT-HMEC (setting [2]), 5.79 ± 0.076%.
